From patent US20100034831A1 (DOMANTIS, published 2010) come the findings set out here.

T1: mouse TNFR1 on L929 fibroblasts (mouse, UniProt P25118 30-454)
T1 sequence (looked up): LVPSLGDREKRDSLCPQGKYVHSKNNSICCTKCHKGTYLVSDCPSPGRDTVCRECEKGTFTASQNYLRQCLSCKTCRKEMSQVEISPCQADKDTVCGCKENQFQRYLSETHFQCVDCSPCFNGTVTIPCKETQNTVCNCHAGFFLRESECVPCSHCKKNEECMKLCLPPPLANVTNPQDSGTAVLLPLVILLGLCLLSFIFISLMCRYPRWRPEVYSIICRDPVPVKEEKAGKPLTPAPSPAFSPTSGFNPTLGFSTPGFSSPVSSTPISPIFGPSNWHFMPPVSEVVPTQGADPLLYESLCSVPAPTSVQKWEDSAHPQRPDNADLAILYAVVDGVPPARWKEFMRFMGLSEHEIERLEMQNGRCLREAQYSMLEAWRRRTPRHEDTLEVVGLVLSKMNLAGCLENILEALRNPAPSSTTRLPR

B1: TAR2m-15-12 (anti-TNFR1 dAb) (other)
chain: DIQMTQSPSSLSASVGDRVTITCRASQYIHTSVQWYQQKPGKAPKLLIYGSSRLHSGVPSRFSGSGSGTDFTLTISSLQPEDFATYYCQQNHYSPFTYGQGTKVEIKR
B2: TAR2m-21-23 (anti-TNFR1 dAb monomer) (other)
VH: EVQLLESGGGLVQPGGSLRLSCAASGFTFNRYSMGWLRQAPGKGLEWVSRIDSYGRGTYYEDPVKGRFSISRDNSKNTLYLQMNSLRAEDTAVYYCAKISQFGSNAFDYWGQGTQVTVSS
B3: PEG DOM1M (anti-TNFR1 dAb monomer TAR2m21-23 PEGylated with a 40 kDa polyethyleneglycol) (other)
VH: EVQLLESGGGLVQPGGSLRLSCAASGFTFNRYSMGWLRQAPGKGLEWVSRIDSYGRGTYYEDPVKGRFSISRDNSKNTLYLQMNSLRAEDTAVYYCAKISQFGSNAFDYWGQGTQVTVSS
modifications: PEGylated with a 40 kDa polyethyleneglycol (attachment site not stated)

This test deals with T1, mouse TNFR1 on L929 fibroblasts. The experiment in a line: cell-based or functional assay.
For B1, the “Potency, ND50 L929 assay” value came to 5 nM. Turning to B2, the “Potency, ND50 L929 assay” value came to 1 nM. Turning to B3, the “Potency, ND50 L929 assay” value is 1 nM.
